Target: the molecule itself
Experiment: cell-based or functional assay

B1: wildtype C9 (C9wt) (natural protein)
chain: not shown
modifications: Cy5 at the C-terminus in the binding assays (GGGK-azide sortagged onto LPETGG, then DBCO-Cy5 by copper-free click chemistry)
bacterial viability (CFU) of C5b-8 labelled E. coli MG1655 with 100 nM C9, decrease: ≥ 1000 fold

Reference: paper PMC8604303, “Polymerization of C9 enhances bacterial cell envelope damage and killing by membrane attack complex pores” (PLoS Pathogens, 2021)
